From patent US20240425567A1 come the findings set out here.

The target of assay [1] is antigen of the binding ELISA (not given). Description: binding ELISA relative to reference standard; 25 C inverted, 0.5 month. Background: ELISA stands for enzyme-linked immunosorbent assay.
Assay [2] has the same target. Description: binding ELISA relative to reference standard; 2 to 8 C inverted, initial.
Assay [3] shares this target. Description: binding ELISA relative to reference standard; 25 C upright, initial.
For assay [4] the target is unchanged. Description: binding ELISA relative to reference standard; 2 to 8 C upright, initial.
Assay [5] shares this target. As to the kind of experiment: binding ELISA relative to reference standard; 40 C inverted, initial.
Assay [6] has the same target. As to the kind of experiment: binding ELISA relative to reference standard; 25 C inverted, 2 months.
The target is the same in assay [7]. As to the kind of experiment: binding ELISA relative to reference standard; 25 C inverted, initial.
For assay [8] the target is unchanged. As to the kind of experiment: binding ELISA relative to reference standard; 2 to 8 C inverted, 6 months.
For assay [9] the target is unchanged. Description: binding ELISA relative to reference standard; 2 to 8 C inverted, 1 month.
The target is the same in assay [10]. Description: binding ELISA relative to reference standard; 2 to 8 C inverted, 12 months.
Assay [11] has the same target. As to the kind of experiment: binding ELISA relative to reference standard; 40 C inverted, 0.5 month.
Assay [12] has the same target. Description: binding ELISA relative to reference standard; 25 C upright, 6 months.
Assay [13] has the same target. Description: binding ELISA relative to reference standard; 25 C inverted, 3 months.
Assay [14] has the same target. As to the kind of experiment: binding ELISA relative to reference standard; 2 to 8 C inverted, 3 months.
Assay [15] has the same target. Description: binding ELISA relative to reference standard; 40 C inverted, 1 month.
For assay [16] the target is unchanged. Description: binding ELISA relative to reference standard; 25 C inverted, 1 month.

B1: ADI-58125 (antibody, human IgG1, lambda, V domains shown)
VH: EVQLVESGGGLVKPGGSLRLSCAASGFTFSSYYMNWVRQAPGKGLEWVSSISEDGYSTYYPDSLKGRFTISRDSAKNSLYLQMNSLRADDTAVYYCARDFSGHTAWAGTGFEYWGQGTLVTVSS
VL: QSVLTQPPSVSGAPGQRITISCTGSSSNIGAGYDVHWYQQLPGTAPKLLIYGSSSRNSGVPDRFSGSKSGTSASLAITGLQAEDEADYYCQSYDSSLSVLYTFGTGTKVTVLG
With B1, the Binding ELISA, % of reference standard activity (% of reference standard activity) worked out at 109 in assay [1]; 114 in [2]; 114 in [3]; 114 in [4]; 114 in [5]; 111 in assay [6]. Moreover, the Binding ELISA, % of reference standard activity (% of reference standard activity) is 114 in assay [7]; 108 in [8]; 101 in [9]; 93 in [10]; 99 in [11]; 91 in assay [12]. Also, the Binding ELISA, % of reference standard activity (% of reference standard activity) in [13] was determined as 94; in [14] it was 111; in assay [15], 94; in assay [16] it was 102. Moreover, the Binding ELISA, Reference Standard activity % (% of reference standard activity) was determined as 109 in assay [1]; 114 in [3]; 114 in assay [5]; 111 in [6]; 114 in assay [7]; 99 in assay [11]. Besides, the Binding ELISA, Reference Standard activity % (% of reference standard activity) in [15] was determined as 94; in assay [16] it was 102.
